# Test results from the RNAGym collection of RNA variant scans (doi:10.1073/pnas.2313332121).
# Variants at the floor of the assay were thinned out.
# B1: TPR 5TU (parent)
# chain: GGAUCUUCUCGAUCUAACAAAAAAGACAAAUCUGCCACAAAGCUUGAGAGCAUCUUCGGAUGCAGAGGCGGCAGCCUUCGGUGGCGCGAUAGCGCCAACGUUCUCAACUAUGACACGCAAAACGCGUGCUCCGUUGAAUGGAGUUUAUCAUG
# Variants of: B1
# Assay: polymerase ribozyme fitness, log enrichment relative to wild type (log ratio); higher = more active; in vitro selection for triplet polymerase activity
# In short: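 For each subunit of a heterodimeric triplet polymerase ribozyme, a mutant library was built by PCR and transcribed, then taken through a single in vitro selection round in triplicate. Selection involved annealing to a biotinylated primer, the partner subunit and triplets, incubation frozen at −7 °C, gel excision of extended constructs, capture on streptavidin beads and RT-PCR. Genotypes were retained after Illumina sequencing of inputs and outputs only with ≥10 input reads and ≥1 read in each output. Fitness is defined as the logarithm of a genotype's enrichment relative to wild-type enrichment, using inverse-variance-weighted averages across replicates, with the logarithm taken to base 2.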
row,Variant,polymerase ribozyme fitness (log ratio)
1,GGAUCUUCUCGAUCUAACAAAAAUGACAAAUCUGCCACAAAGCUUGCGAGCAUCUUCGGAUGCAGAGGCGGCAGCCUUCGGUGGCACGAUAGCCCCAACGUUCUCAACUAUGACACGUAAAACGCGUGCUCCGUUGGAUGGAGUUUAUCAUG [A24U A47C G86A G94C C118U A137G],≤ -4.2
2,GGAUCUUCUCGAUCUAACAAAAAUGACAAAUCUGCCACAAAGCUUGAGAGCAUCUUCGGAUGCAGAGGCGGCAGCCUUCGGUGGCGCGAUAGCGCCAACGUUCUCAACUAUGACACGCAAAACGCGUGCUCCGUUGAAUGGAGUUUAUCAUG [A24U],0.541
3,GGAUCUUCUCGAUCUAACAAAAAGGACAAAACUGCCACAAAGCUUGAGAGCAUCUUCGGAUGCAGAGGCGGCAGCCUUCGGCGGCGCGAUAGCGCCAACGGUCUCAACUAUGACACGCAAAACGCGUGCUCCGUUGAAUGGAGUUUAUCAUG [A24G U31A U82C U101G],≤ -4.2
4,GGAUCUUCUCGAUCUAACAAAAAUGACAACUCUGCCACAAAGCUUGAGAGCAUCUUCGGAUGCAGAGGCGGCAGCCUUCGGUGGCGCGAUAGCGCCAACGUUCUCAACUAUGACACGCAAAACGCGUGCUCCGUUGAAUAGAGUUUAUCAUG [A24U A30C G140A],-3.94
5,GGAUCUUCUCGAUCUAACAAAAAGGACAAAUCGGCCACAAAGCUUGAGAGCAUCUUCGGAUGCAGAGGCGGCAGCCUUCGGUGGCGUGAUAGCGCCAACGGUCUCAACUAUGACACGCAAAACGCGUGCUCCGUUGAAUCGAGUUUAUCAUG [A24G U33G C87U U101G G140C],≤ -4.2
6,GGAUCUUCUCGAUCUAACAAAAAUGGCAAAUCUGCCACAAAGCUUGAGAGCAUCUUCGGAUGCCGAGGCGGCAGCCUUCGGUGUCGCGAUAGCGCCUACGUUCUCAACUAUGACACGCAAACCGCGUGCUCCGUUGAAUGGAGUUUAUCAUG [A24U A26G A64C G84U A97U A122C],≤ -4.2
7,GGAUCUUCUCGAUCUAACAAAAAUGACAAAUCUGCCACAAAGCUUGCGAGCAUCUUCGGAUGCAGAGGCGCCAGCCUUCGGUGGCGCGAUAGCGCCUGCGUUCUCAACUAUGACACGCAAAACGCGUGGUCCGUUGAAUGGAGUUUAUCAUG [A24U A47C G71C A97U A98G C129G],≤ -4.2
8,GGAUCUUCUCGAUCUAACAAAAAUGACAAUUCUGCCACAAAGCUUGAGAGCAUCUUCGAAUGCAGAGGCGGCAGCCUUCGGUGGCGCGAUAGCGCCAACGCGCUCAACUAUGACACGCAAUACGCCUGCUCCGUUGAAUGGCGUUUAUCAUG [A24U A30U G59A U101C U102G A121U G126C A142C],≤ -4.2
9,GGAUCUUCUCGAUCUAACAAAAAUGUCAAAUCUGCCACAAAGCUUGAGAGCAUCCUCGGAUGCAGAGGCGGCAGCCUUCGGUGGCGCGAUGGCGCCAACGUUCUCAACUAUGACACGCAAAACGCGUGCUCCGUUGAAUGGAGUUUAUCAUG [A24U A26U U55C A91G],≤ -4.2
10,GGAUCUUCUCGAUCUAACAAAAAUGACAAAUCUGCCUCAAAGCUUGAGAGCAUCUUCGGAUGCAGAGGCGGCAGCCUUCGGGGGCGCGAUAGCGCCAACGUUCUCAACUAUGACACGCAAAACGCGUGCUCCGUUGAAUGGAGUUUAUCAUG [A24U A37U U82G],-0.974
11,GGAUCUUCUCGAUCUAACAAAAAGGACAAAUCUGCCACAAAGCUUGAGAGCAACUUCGGAUGCAGAGGCGGCAGCCUUCGGUGGCGCGAUAGCGUCAACGUUCUCAACUAUGACACGCAAAACGCGUGCUCCGUUGAAUGGAGUUUAUCAUG [A24G U53A C95U],≤ -4.2
12,GGAUCUUCUCGAUCUAACAAAAAUGACUAAUCUGCCACAAAGCUUGAGAGCAUCUUCGGAUGCAGAGGCGGCAGCCUUGGGUGGCGCGAUUGCGCCUACGUUCUCAACUAUGACAUGCAAAACGCGUGCUCUGUAGAAUGGAGUUUAUCAUG [A24U A28U C79G A91U A97U C116U C132U U135A],≤ -4.2
13,GGAUCUUCUCGAUCUAACAAAAAUGACAAAUCUGCCACUAAGCUUGAGAGCAUCUUCGGAUGCAGAGGCGGCAGCCUUCGGUGGCGCGAUAGCGCAAAGGUUCUCAACUAUGACACGCAAAACGCGUGCCGCGUUGAAUGGAGUUUAUCAUG [A24U A39U C96A C99G U130C C131G],≤ -4.2
14,GGAUCUUCUCGAUCUAACAAAAAGGACAAAUCUGCCACAAAGCUUGAGAGCAUCGUCGGAUGCAGAGGCGGCAGCCUUCGGUGGCGCGAUAGCGCCAACGUUCUCAACUAUGACACGCAAAACGCGUGCUCCGUUGAAUGGAGUUUAUCAUG [A24G U55G],-3.78
15,GGAUCUUCUCGAUCUAACAAAAAUGACAAGUCUGCCACAAAGCUUGAGAGCAUCUUCGGAUGCGGAGGCGGCAGCCUUCGGUGGCGGGAUAGCGCCAACGUUCUCAACUAUGACACGCAAAUCGUGUGCUCCGUUGAAUGGAGUUUAUUAUG [A24U A30G A64G C87G A122U C125U C149U],≤ -4.2
16,GGAUCUUCUCGAUCUAACAAAAAUGACAAAUCUGCCACACAGCUUGAGAGCAUCUUCGGAUGCAGAGGCGGCAGCCUUCGGUGGCGCGAUAGCGCCAUCGUUCUCAACUAUGACACGCAAAACGCGUGCUCCGUUGAAUGGAGUUUAUCAUG [A24U A40C A98U],0.235
17,GGAUCUUCUCGAUCUAACAAAAAGGACAAAUCGGCCACAAAGCUUGAGAGCAUCUUCGGAUGCAGAGGCGACAGCCUUCGGUGGCGGGAUAGGGCAAGCGUUCUCAACUAUGACACGCAAAACGCGUGCUCCGUUGGAUGGAGUUUAUCAUG [A24G U33G G71A C87G C93G C96A A98G A137G],≤ -4.2
18,GGAUCUUCUCGAUCUAACAAAAAGGACAAAUCUGCCACAAAGCUUGAGAGCAACUUCGGAUGCAGAGGCGGCAGCCUUCGGUGGCGCGAUAGCGCGAACGUUCUCAACUAUGACACGCAAAGCGCGUGCUCCGUUGAAUGGCGUUUAUCAUG [A24G U53A C96G A122G A142C],≤ -4.2
19,GGAUCUUCUCGAUCUAACAAAAAUGACACAUCUGCCACAAAGCUUGAGAGCAUCUUCGGAUGCAGAGGCGGCGGCCUUCGGUGGCUCGCUAGCGCCAACGUUCUCAACUAUGACACGCAAAACGCGUGCUCCGUUGAAUUGAGUUUAUCGUG [A24U A29C A73G G86U A89C G140U A150G],≤ -4.2
